The target of one assay is T1, cynomolgus CD73 on cells (cynomolgus).
T1 construct: whole, on cells; also called native CD73 on MK-1 cells (cynomolgus)
The assay is described as follows: flow cytometry on MK-1 cells, IgG1-TM. Background: In flow cytometry, cells or beads pass a laser one at a time.

The target in the next assay is T2, human CD73 V144K + N185G (human, UniProt P21589 27-553).
T2 chain: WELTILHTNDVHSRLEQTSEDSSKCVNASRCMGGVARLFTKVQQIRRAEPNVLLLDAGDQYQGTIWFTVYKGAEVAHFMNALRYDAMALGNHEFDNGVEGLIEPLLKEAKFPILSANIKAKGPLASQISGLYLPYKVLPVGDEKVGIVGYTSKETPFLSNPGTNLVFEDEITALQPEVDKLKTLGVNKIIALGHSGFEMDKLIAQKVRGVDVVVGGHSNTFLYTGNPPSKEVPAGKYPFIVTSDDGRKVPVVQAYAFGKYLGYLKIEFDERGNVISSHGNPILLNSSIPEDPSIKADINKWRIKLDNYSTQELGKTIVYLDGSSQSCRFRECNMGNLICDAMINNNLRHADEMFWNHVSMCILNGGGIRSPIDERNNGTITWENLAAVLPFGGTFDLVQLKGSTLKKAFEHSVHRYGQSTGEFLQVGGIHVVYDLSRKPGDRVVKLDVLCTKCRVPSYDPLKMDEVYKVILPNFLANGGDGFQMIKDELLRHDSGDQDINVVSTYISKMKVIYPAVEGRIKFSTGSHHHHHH
Kind of assay: SPR ProteOn, CD73 variant on HTG chip.

The target in the next assay is T3, CD73 chimera KO_Nterm (chicken (Gallus gallus); human).
T3 construct: Human limits converted from mature numbering (+26); also called N-terminal domain-swapped CD73
T3 chain: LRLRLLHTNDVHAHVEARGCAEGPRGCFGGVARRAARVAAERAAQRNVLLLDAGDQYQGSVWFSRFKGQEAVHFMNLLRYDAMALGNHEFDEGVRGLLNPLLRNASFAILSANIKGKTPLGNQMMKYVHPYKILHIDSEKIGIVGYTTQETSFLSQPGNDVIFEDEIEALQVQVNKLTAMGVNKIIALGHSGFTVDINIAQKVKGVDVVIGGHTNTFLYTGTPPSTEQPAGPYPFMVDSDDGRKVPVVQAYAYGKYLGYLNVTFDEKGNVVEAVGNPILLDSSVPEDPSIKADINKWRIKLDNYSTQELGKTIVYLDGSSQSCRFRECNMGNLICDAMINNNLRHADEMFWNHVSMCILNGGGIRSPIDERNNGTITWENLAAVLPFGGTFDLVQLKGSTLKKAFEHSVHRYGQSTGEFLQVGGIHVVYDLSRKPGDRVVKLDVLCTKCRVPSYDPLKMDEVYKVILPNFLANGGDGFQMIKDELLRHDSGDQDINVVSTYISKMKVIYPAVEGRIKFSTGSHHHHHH
Kind of assay: SPR ProteOn, CD73 variant on HTG chip.

Another assay has as its target T4, human CD73 K180A + N185G (human, UniProt P21589 27-553, K180A; N185G).
T4 sequence: T2 chain with K144V, K180A, A350T
The assay is described as follows: SPR ProteOn, CD73 variant on HTG chip.

In the next assay the target is T5, human CD73 N185G (human, UniProt P21589 27-553, N185G).
T5 sequence: T2 chain with K144V, A350T
The assay is described as follows: SPR ProteOn, His-tagged CD73 variant on HTG chip, 2:1 fit.

A further assay concerns the target T6, murine CD73 on cells (murine, UniProt Q61503 29-551).
T6 sequence (looked up): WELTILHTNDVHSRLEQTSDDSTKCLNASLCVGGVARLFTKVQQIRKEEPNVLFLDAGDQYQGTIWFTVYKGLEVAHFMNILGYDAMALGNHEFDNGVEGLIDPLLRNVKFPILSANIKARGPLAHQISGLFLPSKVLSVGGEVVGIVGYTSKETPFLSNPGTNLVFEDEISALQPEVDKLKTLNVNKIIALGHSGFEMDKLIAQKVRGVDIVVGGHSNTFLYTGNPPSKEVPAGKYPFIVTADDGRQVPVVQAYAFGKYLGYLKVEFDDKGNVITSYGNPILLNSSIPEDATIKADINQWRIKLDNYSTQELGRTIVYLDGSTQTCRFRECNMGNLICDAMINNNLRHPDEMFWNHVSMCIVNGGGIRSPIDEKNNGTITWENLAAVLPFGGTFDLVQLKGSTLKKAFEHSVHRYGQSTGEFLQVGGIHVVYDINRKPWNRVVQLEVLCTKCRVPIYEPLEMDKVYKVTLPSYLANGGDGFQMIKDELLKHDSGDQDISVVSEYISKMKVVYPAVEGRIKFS
Kind of assay: cell-based or functional assay.

Results on one molecule are retold here after patent publication US20160194407A1 (AstraZeneca / MedImmune, published 2016).

Where a chain is given by its changes, count along the chain named.

By Kd is commonly meant the constant that tells how readily two partners part at equilibrium. For orientation: koff means the first-order rate constant of dissociation. The term kon denotes the second-order rate constant of association. A low value points to slower complex formation.

Experimental for cynomolgus CD73 on cells: All flow cytometry experiments were run at 4 C and reagents were prepared in PBS/1% FBS buffer. 10,000 cells were incubated with test antibody in 50 uL volume for 4 hours. Cells were washed twice and incubated in 50 uL goat anti-human IgGFc-AlexaFluor647 conjugate for 15 minutes. Cells were washed, resuspended in buffer supplemented with Dapi, and analyzed on a flow cytometer. Dead cells, identified by high Dapi staining, were excluded from the analysis. For the determination of KD values, a plot of the median fluorescence intensity as a function of test antibody concentration was fitted nonlinearly using a one site binding isotherm model.

B1: MEDI9447 (antibody, V domains shown)
VH: EVQLLESGGGLVQPGGSLRLSCAASGFTFSSYAYSWVRQAPGKGLEWVSAISGSGGRTYYADSVKGRFTISRDNSKNTLYLQMNSLRAEDTAVYYCARLGYGRVDEWGRGTLVTVSS
VL: QSVLTQPPSASGTPGQRVTISCSGSLSNIGRNPVNWYQQLPGTAPKLLIYLDNLRLSGVPDRFSGSKSGTSASLAISGLQSEDEADYYCATWDDSHPGWTFGGGTKLTVL
notes: also called clone 10.3 antibody; 73combo3
In the assay with cynomolgus CD73 on cells, B1 showed a Kd of 0.084 nM. The binding result is reported as “no binding” in the assay with human CD73 V144K + N185G, “no binding (tested: 5 nM to 0.3 nM)” with CD73 chimera KO_Nterm and “no binding” with human CD73 K180A + N185G. For the same molecule, in the assay with human CD73 N185G, the off-rate constant (koff) was found to be 0.000245 s⁻¹. The kon in the assay with human CD73 N185G turned out to be 9.11e+06 M⁻¹ s⁻¹. Further, the “FabZAP internalization, max toxicity, 4T1” value with murine CD73 on cells was determined as 97%.
